Source: PMC11629141
Numbering of substitutions follows the chain as printed. Numbers in names are those of the source. Values belong to the binder of their own block, whether it stands above or below them.

Assays:
[1] = molecular target: 6G11 (BI‐1206), full‐length antibody containing the PGLALA Fc mutations (human); experiment: ELISA; 6G11 coated (5 µg/mL, MaxiSorp, overnight 4°C); scFv 500 to 0.19 nM, 1 h RT; detection with StrepTactin-HRP
[2] = molecular target: 6G11 (BI‐1206), full‐length antibody containing the PGLALA Fc mutations (human); experiment: BLI; 6G11 (5 µg/mL) loaded on Protein A tips; original or mutated S2B scFv 500-7.8 nM in 1:2 dilutions; association and dissociation 180 s each

Sequence of 6G11 (BI‐1206), full‐length antibody containing the PGLALA Fc mutations (human) (heavy, as listed by the source, chain 1 of 2): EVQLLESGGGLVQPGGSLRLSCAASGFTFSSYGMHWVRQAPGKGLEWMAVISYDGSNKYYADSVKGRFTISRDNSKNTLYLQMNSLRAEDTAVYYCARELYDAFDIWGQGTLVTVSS
Sequence of 6G11 (BI‐1206), full‐length antibody containing the PGLALA Fc mutations (human) (light, as listed by the source, chain 2 of 2): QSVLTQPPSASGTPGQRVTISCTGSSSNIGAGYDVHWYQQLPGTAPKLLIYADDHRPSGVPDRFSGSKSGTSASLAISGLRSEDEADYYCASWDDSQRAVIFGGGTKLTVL

- EC50 [1]: 3.9 nM
B1: S2N scFv (non‐blocking anti‐6G11 scFv clone 2), solitary (scFv, V domains shown)
VH: AVTLDESGGGLQTPGGGLSLVCKASGFSFSDRGMQWVRQAPGKGLEWVAGIDDDDNNTWYATAVKGRATISRDNGQSTVRLQLNSLRAEDTGTYYCAKTPTSYYWGAAEIDAWGHGTEVIV
VL: ALTQPSSVSANPGETVKITCSGSSGSYGWYQQKAPGSAPVTVIYDNNNRPSNIPSRFSGSLSGSTNTLTITGVQADDEAVYFCGSYEGSSYVGIFGAGTTLTVL

- fold decrease in affinity against the original S2B [2]: 6 fold
B2: S2B R101A scFv, solitary (scFv, V domains shown)
VH: AVTLDESGGGLQTPGGGLSLVCKASGFTFSSYSMVWVRQAPSKRLEWVAGIYSSATWTYYAPAVKGRATISRDNGQSTVRLQLNDLRAEDTGTYFCAKTSASGWTAYSASAIDAWGHGTEVIV
VL: ALTQPSSVSANPGETVKITCSGGSSYYGWYQQKSPGSAPVTVIYSNDKRPSDIPSRFSGSTSGSTATLTITGVQADDEAVYFCGGYDSNIHGGIFGAGTTLTVL

- fold decrease in affinity against the original S2B [2]: 10 fold
B3: S2B W104A scFv, solitary (scFv, V domains shown)
VH: B2 VH with A101R, W104A
VL: B2 VL

- EC50 [1]: 28.7 nM
B4: S2B scFv (blocking anti‐6G11 scFv clone 2), solitary (scFv, V domains shown)
VH: B2 VH with A101R
VL: B2 VL

- fold decrease in binding against the original S2B [2]: 4 fold
B5: S2B Y52A scFv, solitary (scFv, V domains shown)
VH: B2 VH with Y52A, A101R
VL: B2 VL
